In paper doi:10.1101/2024.03.07.583884:

Assays:
[1] = molecular target: Pus8AA+LMY➔A-ACE2-Cherry (human) (UniProt Q9BYF1)
[2] = molecular target: mACE 1-357 ACE2-Cherry hybrid (mouse | human) (UniProt Q8R0I0)

Substance “OM.BA.1-RBD-β2AR-GFP (from UniProt P0DTC2 333-529) (domain or fragment)” has a reduction of Pus8AA +LMY➔A-Cherry fluorescence, DPF assay [1] of 17.2% and a loss of ACE2 fluorescence, DPF assay [2] of 24.8%.
